Assay results: article doi:10.1101/2020.10.07.330233v1

Substrate: O=[N+]([O-])c1ccc(O[C@@H]2O[C@H](CO)[C@@H](O)[C@H](O)[C@H]2O)cc1
Assay: purified protein
Details: 1 hour assay
[1] = average of two wild-type replicates (WT-1, WT-2)

B1: β-glucosidase B (BglB) (Paenibacillus polymyxa) (protein)
chain: MSENTFIFPATFMWGTSTSSYQIEGGTDEGGRTPSIWDTFCQIPGKVIGGDCGDVACDHFHHFKEDVQLMKQLGFLHYRFSVAWPRIMPAAGIINEEGLLFYEHLLDEIELAGLIPMLTLYHWDLPQWIEDEGGWTQRETIQHFKTYASVIMDRFGERINWWNTINEPYCASILGYGTGEHAPGHENWREAFTAAHHILMCHGIASNLHKEKGLTGKIGITLNMEHVDAASERPEDVAAAIRRDGFINRWFAEPLFNGKYPEDMVEWYGTYLNGLDFVQPGDMELIQQPGDFLGINYYTRSIIRSTNDASLLQVEQVHMEEPVTDMGWEIHPESFYKLLTRIEKDFSKGLPILITENGAAMRDELVNGQIEDTGRHGYIEEHLKACHRFIEEGGQLKGYFVWSFLDNFEWAWGYSKRFGIVHINYETQERTPKQSALWFKQMMAKNGF
Protein B1 has a Km [1] of 9.8 ± 2.2 mM and a kcat [1] of 10.37 ± 0.763 s⁻¹.

B2: β-glucosidase B (BglB) (Paenibacillus polymyxa; I48K) (protein)
chain: MSENTFIFPATFMWGTSTSSYQIEGGTDEGGRTPSIWDTFCQIPGKVKGGDCGDVACDHFHHFKEDVQLMKQLGFLHYRFSVAWPRIMPAAGIINEEGLLFYEHLLDEIELAGLIPMLTLYHWDLPQWIEDEGGWTQRETIQHFKTYASVIMDRFGERINWWNTINEPYCASILGYGTGEHAPGHENWREAFTAAHHILMCHGIASNLHKEKGLTGKIGITLNMEHVDAASERPEDVAAAIRRDGFINRWFAEPLFNGKYPEDMVEWYGTYLNGLDFVQPGDMELIQQPGDFLGINYYTRSIIRSTNDASLLQVEQVHMEEPVTDMGWEIHPESFYKLLTRIEKDFSKGLPILITENGAAMRDELVNGQIEDTGRHGYIEEHLKACHRFIEEGGQLKGYFVWSFLDNFEWAWGYSKRFGIVHINYETQERTPKQSALWFKQMMAKNGF
B2 showed a Km (technical triplicate) of 4.2 ± 0.1 mM and a kcat (technical triplicate) of 4.998 ± 0.04 s⁻¹.

B3: β-glucosidase B (BglB) (Paenibacillus polymyxa; I23A) (protein)
chain: MSENTFIFPATFMWGTSTSSYQAEGGTDEGGRTPSIWDTFCQIPGKVIGGDCGDVACDHFHHFKEDVQLMKQLGFLHYRFSVAWPRIMPAAGIINEEGLLFYEHLLDEIELAGLIPMLTLYHWDLPQWIEDEGGWTQRETIQHFKTYASVIMDRFGERINWWNTINEPYCASILGYGTGEHAPGHENWREAFTAAHHILMCHGIASNLHKEKGLTGKIGITLNMEHVDAASERPEDVAAAIRRDGFINRWFAEPLFNGKYPEDMVEWYGTYLNGLDFVQPGDMELIQQPGDFLGINYYTRSIIRSTNDASLLQVEQVHMEEPVTDMGWEIHPESFYKLLTRIEKDFSKGLPILITENGAAMRDELVNGQIEDTGRHGYIEEHLKACHRFIEEGGQLKGYFVWSFLDNFEWAWGYSKRFGIVHINYETQERTPKQSALWFKQMMAKNGF
Work on B3 yielded a Km (technical triplicate) of 17.1 ± 1.1 mM and a kcat (technical triplicate) of 1.54 ± 0.035 s⁻¹.

B4: β-glucosidase B (BglB) (Paenibacillus polymyxa; I23V) (protein)
chain: MSENTFIFPATFMWGTSTSSYQVEGGTDEGGRTPSIWDTFCQIPGKVIGGDCGDVACDHFHHFKEDVQLMKQLGFLHYRFSVAWPRIMPAAGIINEEGLLFYEHLLDEIELAGLIPMLTLYHWDLPQWIEDEGGWTQRETIQHFKTYASVIMDRFGERINWWNTINEPYCASILGYGTGEHAPGHENWREAFTAAHHILMCHGIASNLHKEKGLTGKIGITLNMEHVDAASERPEDVAAAIRRDGFINRWFAEPLFNGKYPEDMVEWYGTYLNGLDFVQPGDMELIQQPGDFLGINYYTRSIIRSTNDASLLQVEQVHMEEPVTDMGWEIHPESFYKLLTRIEKDFSKGLPILITENGAAMRDELVNGQIEDTGRHGYIEEHLKACHRFIEEGGQLKGYFVWSFLDNFEWAWGYSKRFGIVHINYETQERTPKQSALWFKQMMAKNGF
B4 was tested, and the Km (technical triplicate) was 12.7 ± 0.53 mM and the kcat (technical triplicate) was 9.4 ± 0.125 s⁻¹.

B5: β-glucosidase B (BglB) (Paenibacillus polymyxa; A360S) (protein)
chain: MSENTFIFPATFMWGTSTSSYQIEGGTDEGGRTPSIWDTFCQIPGKVIGGDCGDVACDHFHHFKEDVQLMKQLGFLHYRFSVAWPRIMPAAGIINEEGLLFYEHLLDEIELAGLIPMLTLYHWDLPQWIEDEGGWTQRETIQHFKTYASVIMDRFGERINWWNTINEPYCASILGYGTGEHAPGHENWREAFTAAHHILMCHGIASNLHKEKGLTGKIGITLNMEHVDAASERPEDVAAAIRRDGFINRWFAEPLFNGKYPEDMVEWYGTYLNGLDFVQPGDMELIQQPGDFLGINYYTRSIIRSTNDASLLQVEQVHMEEPVTDMGWEIHPESFYKLLTRIEKDFSKGLPILITENGASMRDELVNGQIEDTGRHGYIEEHLKACHRFIEEGGQLKGYFVWSFLDNFEWAWGYSKRFGIVHINYETQERTPKQSALWFKQMMAKNGF
B5 was tested, and the Km (technical triplicate) was 12.7 ± 1.4 mM and the kcat (technical triplicate) was 1.55 ± 0.0533 s⁻¹.
